The values below come from PMC9727190, “Characterization and identification of a novel chromosomal class C β-lactamase, LAQ-1, and comparative genomic analysis of a multidrug resistance plasmid in Lelliottia amnigena P13” (Frontiers in Microbiology, 2022).

In series [1] the test system is CC1(C)S[C@@H]2[C@H](NC(=O)[C@H](N)c3ccccc3)C(=O)N2[C@H]1C(=O)O. Briefly: hydrolysis initial rates, UV-VIS spectrophotometry, Michaelis-Menten fit. The conditions noted are these: 10 mM phosphate buffer pH 7.0, 37°C. Format: biochemical, Lelliottia amnigena. The source says:
(§1) hydrolysis initial rates, UV-VIS spectrophotometry, Michaelis-Menten fit on LAQ-1

Series [2] concerns CCN1CCN(C(=O)N[C@@H](C(=O)N[C@@H]2C(=O)N3[C@@H]2SC(C)(C)[C@@H]3C(=O)O)c2ccccc2)C(=O)C1=O. The description is as above. The conditions noted are these: 10 mM phosphate buffer pH 7.0, 37°C. Format: biochemical, Lelliottia amnigena.
Description: as §1

Series [3] has as its system CC(C)(O/N=C(\C(=O)N[C@@H]1C(=O)N2C(C(=O)[O-])=C(C[n+]3ccccc3)CS[C@H]12)c1csc(N)n1)C(=O)O. The description is as above. Format: biochemical, Lelliottia amnigena. The conditions noted are these: 10 mM phosphate buffer pH 7.0, 37°C.
Description: as §1

The test system of series [4] is CO[C@@]1(NC(=O)Cc2cccs2)C(=O)N2C(C(=O)O)=C(COC(N)=O)CS[C@@H]21. Described as above. The conditions noted are these: 10 mM phosphate buffer pH 7.0, 37°C. Format: biochemical, Lelliottia amnigena.
Description: as §1

Series [5] relates to CO/N=C(\C(=O)N[C@@H]1C(=O)N2C(C(=O)[O-])=C(C[N+]3(C)CCCC3)CS[C@H]12)c1csc(N)n1. The series is described as above. Format: biochemical, Lelliottia amnigena. The conditions noted are these: 10 mM phosphate buffer pH 7.0, 37°C.
Description: as §1

For series [6], the system named is Cc1nnc(SCC2=C(C(=O)O)N3C(=O)[C@@H](NC(=O)Cn4cnnn4)[C@H]3SC2)s1. The series is described as above. The conditions noted are these: 10 mM phosphate buffer pH 7.0, 37°C. Format: biochemical, Lelliottia amnigena.
Description: as §1

For another series, the target named is T1, LAQ-1 (Lelliottia amnigena, UniProt A0A8F5JT47).
T1 construct: gene blaLAQ
Briefly: inhibition of nitrocefin hydrolysis, UV-VIS spectrophotometry. Format: biochemical.

T1 sequence (A0A8F5JT47 entry or part of it): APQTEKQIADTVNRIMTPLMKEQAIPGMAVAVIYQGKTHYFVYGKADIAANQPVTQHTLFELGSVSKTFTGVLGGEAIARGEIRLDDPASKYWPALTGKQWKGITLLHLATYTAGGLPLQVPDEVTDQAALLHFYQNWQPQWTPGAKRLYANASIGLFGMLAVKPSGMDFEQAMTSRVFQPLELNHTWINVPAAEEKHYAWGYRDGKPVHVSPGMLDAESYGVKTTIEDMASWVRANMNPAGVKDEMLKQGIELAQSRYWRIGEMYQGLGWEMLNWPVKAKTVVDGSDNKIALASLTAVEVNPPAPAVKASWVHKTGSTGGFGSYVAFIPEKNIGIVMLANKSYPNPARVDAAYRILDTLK

The term Km denotes the substrate concentration at which the rate is half of its maximum. As a reminder, the kcat is the number of substrate molecules converted per active site and unit of time at saturation. As a reminder, the kcat/Km is the second-order rate constant that governs catalysis at low substrate concentration. For LAQ-1 (Lelliottia amnigena), the Km was determined as 436.1 µM in series [1]; 87.56 µM in series [2]; 140 µM in series [3]; 65.4 µM in series [4]; 57.05 µM in series [5]; 645 µM in series [6]. The kcat in series [1] came out at 9140 s⁻¹; in series [2] it was 9430 s⁻¹; in series [3], 642 s⁻¹; in series [4], 1110 s⁻¹; in series [5], 467 s⁻¹; in series [6], 25700 s⁻¹. For the same molecule, the kcat/Km in series [1] is 2.1e+07 M⁻¹ s⁻¹; in series [2], 1.08e+08 M⁻¹ s⁻¹; in series [3], 4.58e+06 M⁻¹ s⁻¹; in series [4], 1.69e+07 M⁻¹ s⁻¹; in series [5], 8.18e+06 M⁻¹ s⁻¹; in series [6], 3.99e+07 M⁻¹ s⁻¹.

The IC50 is the concentration that inhibits the measured activity by half. The low end stands for inhibition by little substance, the high end for a need for much substance. On to `NC(=O)[C@@H]1CC[C@@H]2CN1C(=O)N2OS(=O)(=O)O` [avibactam], for which half-maximal inhibition at LAQ-1 (IC50) was put at 1.45 nM.

Turning to `Nc1nc2c(ncn2[C@@H]2O[C@H](COP(=O)(O)O)[C@@H](O)[C@H]2O)c(=O)[nH]1` [GMP], at LAQ-1, the IC50 was determined as 2630 nM.
